From patent US20040260069A1 (Merck KGaA, published 2004) come the findings set out here.

Test [1] concerns the target T1, TNF alpha (PeproTech EC Ltd, London, UK) (human, UniProt P01375 77-233).
T1 construct: also called tumor necrosis factor alpha
The test can be described thus: plate ELISA, TNF alpha coated at 2.5 µg/ml, anti-human IgG-HRP detection. In general terms: In an ELISA, binding on a coated surface is turned into a signal by an enzyme label.

In another test the target is T2, biotinylated TNF alpha (human, UniProt P01375 77-233, biotinylated using EZ link Sulfo-NHS-biotin (sites not given)).
T2 construct: also called biotin-TNF alpha
The test can be described thus: competition ELISA, antibody against plate-bound TNF alpha RII-Fc for biotin-TNF alpha.

T2 sequence (P01375 77-233 limits assumed): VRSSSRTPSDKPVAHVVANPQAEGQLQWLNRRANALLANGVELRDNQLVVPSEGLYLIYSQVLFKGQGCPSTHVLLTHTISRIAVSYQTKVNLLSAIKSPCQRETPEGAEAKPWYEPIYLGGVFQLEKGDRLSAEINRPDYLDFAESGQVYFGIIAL
T1 sequence (P01375 77-233 limits assumed): as above

B1: modified anti-TNF alpha antibody Vh5/Vk12 (antibody, human IgG1, V domains shown)
VH: EVKLEESGGGLVQPGGSLRLSCAASGFTFSNHWMNWVRQSPEKGLEWVAETRSKSTNSATHYAESVKGRFTISRDDSKNSLYLQMNSLKTEDTGVYYCSRNYYGSTYDYWGQGTTVTVSS
VL: DIQLTQSPDTSSASPGERASFSCRASQFVGSSIHWYQHTTNGSPRLLIKYASESMSGVPSRFSGSGSGTDFTLTINSLEAEDAATYYCQQSHSWPFTFGSGTNLEVKR
notes: Expressed in NS/0 cells as whole antibody with a human IgG1 constant region (vector pSVgpt) and a human kappa constant region (vector pSVhyg); also called modified antibody of the invention; preferred antibody of the present invention
For the molecule B1, the binding result (in test [1]; in the test with biotinylated TNF alpha) was “binds” throughout.
